Data from patent US20110160440A1 (GENENCOR INTERNATIONAL, published 2011).

Each binder was assayed against T1, CEA (carcinoembryonic antigen, Biodesign Intl., Saco, Me.) (UniProt P06731 35-685) (assay: CEA-coated plate at pH 6.5 and pH 7.4, bound BLA activity).
T1 construct: also called immobilized CEA
T1 sequence: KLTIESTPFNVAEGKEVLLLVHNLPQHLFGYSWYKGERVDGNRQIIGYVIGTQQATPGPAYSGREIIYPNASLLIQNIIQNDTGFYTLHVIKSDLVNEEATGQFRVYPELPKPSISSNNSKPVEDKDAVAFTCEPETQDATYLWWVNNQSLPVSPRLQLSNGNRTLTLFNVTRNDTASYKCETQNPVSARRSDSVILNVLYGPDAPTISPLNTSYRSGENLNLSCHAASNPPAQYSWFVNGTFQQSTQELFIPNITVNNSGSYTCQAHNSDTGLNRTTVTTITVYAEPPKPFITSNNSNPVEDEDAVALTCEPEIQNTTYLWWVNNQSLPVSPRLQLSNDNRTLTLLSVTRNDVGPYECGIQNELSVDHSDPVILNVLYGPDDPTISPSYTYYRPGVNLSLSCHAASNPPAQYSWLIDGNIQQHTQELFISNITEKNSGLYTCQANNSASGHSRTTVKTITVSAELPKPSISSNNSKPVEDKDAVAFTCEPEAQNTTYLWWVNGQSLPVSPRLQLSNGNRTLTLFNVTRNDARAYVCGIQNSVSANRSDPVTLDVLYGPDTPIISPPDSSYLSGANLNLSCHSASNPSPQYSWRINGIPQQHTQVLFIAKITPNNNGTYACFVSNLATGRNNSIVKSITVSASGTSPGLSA

Row | Binder | binding result
1 | NA08.1 (scFv) QVQLQQSGAELVKSGGSVKLSCTASGFNIKDSYMHWVRQGPEQGLEWIGHIDPENGDTEYAPKFQGKATFTTDTSSNTAYLQLSSLTSEDTAVYYCNEGTPTGPYYFDYWGQGTTVTVSSGGGGSGGGGSGGGGSENVLTQSPAIVSASPGEKVTITCSASSSVSAMHWFQQKPGTSPKLVIYSTSNLASGVPARFSGSGSGTSYSLTISRMEAEDAATYYCQQRSSYPLTFGAGTKLELKRAATPVSEKQLAEVVANTITPLMKAQSVPGMAVAVIYQGKPHYYTFGKADIAANKPVTPQTLFELGSISKTFTGVLGGDAIARGEISLDDAVTRYWPQLTGKQWQGIRMLDLATYTAGGLPLQVPDEVTDNASLLRFYQNWQPQWKPGTTRLYANASIGLFGALAVKPSGMPYEQAMTTRVLKPLKLDHTWINVPKAEEAHYAWGYRDGKAVRVSPGMLDAQAYGVKTNVQDMANWVMANMAPENVADASLKQGIALAQSRYWRIGSMYQGLGWEMLNWPVEANTVVETSFGNVALAPLPVAEVNPPAPPVKASWVHKTGSTGGFGSYVAFIPEKQIGIVMLANTSYPNPARVEAAYHILEALQ | binds
2 | NA08.4 (scFv) QVQLQQSGAELVKSGGSVKLSCTASGFNIKDSYMHWVRQGPEQGLEWIGWIDPENGDTEYAPKFQGKATFTTDTSSNTAYLQLSSLTSEDTAVYYCNEGDPTGPYYFDYWGQGTTVTVSSGGGGSGGGGSGGGGSENVLTQSPAIVSASPGEKVTITCSASSSVSYMHWFQQKPGTSPKLVIYSTSNLADGVPARFSGSGSGTSYSLTISRMEAEDAATYYCQQRSSYPLTFGAGTKLELKRAATPVSEKQLAEVVANTITPLMKAQSVPGMAVAVIYQGKPHYYTFGKADIAANKPVTPQTLFELGSISKTFTGVLGGDAIARGEISLDDAVTRYWPQLTGKQWQGIRMLDLATYTAGGLPLQVPDEVTDNASLLRFYQNWQPQWKPGTTRLYANASIGLFGALAVKPSGMPYEQAMTTRVLKPLKLDHTWINVPKAEEAHYAWGYRDGKAVRVSPGMLDAQAYGVKTNVQDMANWVMANMAPENVADASLKQGIALAQSRYWRIGSMYQGLGWEMLNWPVEANTVVETSFGNVALAPLPVAEVNPPAPPVKASWVHKTGSTGGFGSYVAFIPEKQIGIVMLANTSYPNPARVEAAYHILEALQ | binds
3 | NA08.14 (scFv) QVQLQQSGAELVKSGGSVKLSCTASGFNIKDSYMHWVRQGPEQGLEWIGWIDPENGDTEYAPKFQGKATFTTDTSSNTAYLQLSSLTSEDTAVYYCNEGTDTGPYYFDYWGQGTTVTVSSGGGGSGGGGSGGGGSENVLTQSPAIVSASPGEKVTITCSASSSVSYMHWFQQKPGTSPKLVIYSTSNLASGVPARFSGSGSGTSYSLTISRMEAEDAATYYCQQRSSYPLTFGAGTKLELKRAATPVSEKQLAEVVANTITPLMKAQSVPGMAVAVIYQGKPHYYTFGKADIAANKPVTPQTLFELGSISKTFTGVLGGDAIARGEISLDDAVTRYWPQLTGKQWQGIRMLDLATYTAGGLPLQVPDEVTDNASLLRFYQNWQPQWKPGTTRLYANASIGLFGALAVKPSGMPYEQAMTTRVLKPLKLDHTWINVPKAEEAHYAWGYRDGKAVRVSPGMLDAQAYGVKTNVQDMANWVMANMAPENVADASLKQGIALAQSRYWRIGSMYQGLGWEMLNWPVEANTVVETSFGNVALAPLPVAEVNPPAPPVKASWVHKTGSTGGFGSYVAFIPEKQIGIVMLANTSYPNPARVEAAYHILEALQ | binds
4 | NA08.13 (scFv) QVQLQQSGAELVKSGGSVKLSCTASGFNIKDSYMHWVRQGPEQGLEWIGWIDPENGDTEYAPKFHGKATFTTDTSSNTAYLQLSSLTSEDTAVYYCNEGTPTGPYYFDYWGQGTTVTVSSGGGGSGGGGSGGGGSENVLTQSPAIVSASPGEKVTITCSASSSVSYMHWFQQKPGTSPKLVIYDTSNLASGVPARFSGSGSGTSYSLTISRMEAEDAATYYCQQRDSYPLTFGAGTKLELKRAATPVSEKQLAEVVANTITPLMKAQSVPGMAVAVIYQGKPHYYTFGKADIAANKPVTPQTLFELGSISKTFTGVLGGDAIARGEISLDDAVTRYWPQLTGKQWQGIRMLDLATYTAGGLPLQVPDEVTDNASLLRFYQNWQPQWKPGTTRLYANASIGLFGALAVKPSGMPYEQAMTTRVLKPLKLDHTWINVPKAEEAHYAWGYRDGKAVRVSPGMLDAQAYGVKTNVQDMANWVMANMAPENVADASLKQGIALAQSRYWRIGSMYQGLGWEMLNWPVEANTVVETSFGNVALAPLPVAEVNPPAPPVKASWVHKTGSTGGFGSYVAFIPEKQIGIVMLANTSYPNPARVEAAYHILEALQ | binds
5 | NA08.9 (scFv) QVQLQQSGAELVKSGGSVKLSCTASGFNIKDSYMHWVRQGPEQGLEWIGWIDPENGDTEYAPKFQGKATFTTDTSSNTAYLQLSSLTSEDTAVYYCNEGTPTGPYYFDYWGQGTTVTVSSGGGGSGGGGSGGGGSENVLTQSPAIVSASPGEKVTITCSASSSVSAMHWFQQKPGTSPKLVIYSTSNLASGVPARFSGSGSGTSYSLTISRMEAEDAATYYCQQRSSYPLTFGAGTKLELKRAATPVSEKQLAEVVANTITPLMKAQSVPGMAVAVIYQGKPHYYTFGKADIAANKPVTPQTLFELGSISKTFTGVLGGDAIARGEISLDDAVTRYWPQLTGKQWQGIRMLDLATYTAGGLPLQVPDEVTDNASLLRFYQNWQPQWKPGTTRLYANASIGLFGALAVKPSGMPYEQAMTTRVLKPLKLDHTWINVPKAEEAHYAWGYRDGKAVRVSPGMLDAQAYGVKTNVQDMANWVMANMAPENVADASLKQGIALAQSRYWRIGSMYQGLGWEMLNWPVEANTVVETSFGNVALAPLPVAEVNPPAPPVKASWVHKTGSTGGFGSYVAFIPEKQIGIVMLANTSYPNPARVEAAYHILEALQ | binds
6 | NA08.12 (scFv) QVQLQQSGAELVKSGGSVKLSCTASGFNIKDSYMHWVRQGPEQGLEWIGWIDPENGDTEYAPKFQGKATFTTDTSSNTAYLQLSSLTSEDTAVYYCNEGTPHGPYYFDYWGQGTTVTVSSGGGGSGGGGSGGGGSENVLTQSPAIVSASPGEKVTITCSASSSVSAMHWFQQKPGTSPKLVIYSTSNLASGVPARFSGSGSGTSYSLTISRMEAEDAATYYCQQRDSYPLTFGAGTKLELKRAATPVSEKQLAEVVANTITPLMKAQSVPGMAVAVIYQGKPHYYTFGKADIAANKPVTPQTLFELGSISKTFTGVLGGDAIARGEISLDDAVTRYWPQLTGKQWQGIRMLDLATYTAGGLPLQVPDEVTDNASLLRFYQNWQPQWKPGTTRLYANASIGLFGALAVKPSGMPYEQAMTTRVLKPLKLDHTWINVPKAEEAHYAWGYRDGKAVRVSPGMLDAQAYGVKTNVQDMANWVMANMAPENVADASLKQGIALAQSRYWRIGSMYQGLGWEMLNWPVEANTVVETSFGNVALAPLPVAEVNPPAPPVKASWVHKTGSTGGFGSYVAFIPEKQIGIVMLANTSYPNPARVEAAYHILEALQ | binds
7 | NA08.17 (scFv) QVQLQQSGAELVKSGGSVKLSCTASGFNIKDSYMHWVRQGPEQGLEWIGHIDPENGDTEYAPKFQGKATFTTDTSSNTAYLQLSSLTSEDTAVYYCNEGTPTGPYYFDYWGQGTTVTVSSGGGGSGGGGSGGGGSENVLTQSPAIVSASPGEKVTITCSASSSVSYMHWFQQKPGTSPKLVIYDTSNLASGVPARFSGSGSGTSYSLTISRMEAEDAATYYCQQRSSYPLTFGAGTKLELKRAATPVSEKQLAEVVANTITPLMKAQSVPGMAVAVIYQGKPHYYTFGKADIAANKPVTPQTLFELGSISKTFTGVLGGDAIARGEISLDDAVTRYWPQLTGKQWQGIRMLDLATYTAGGLPLQVPDEVTDNASLLRFYQNWQPQWKPGTTRLYANASIGLFGALAVKPSGMPYEQAMTTRVLKPLKLDHTWINVPKAEEAHYAWGYRDGKAVRVSPGMLDAQAYGVKTNVQDMANWVMANMAPENVADASLKQGIALAQSRYWRIGSMYQGLGWEMLNWPVEANTVVETSFGNVALAPLPVAEVNPPAPPVKASWVHKTGSTGGFGSYVAFIPEKQIGIVMLANTSYPNPARVEAAYHILEALQ | binds
8 | NA08.3 (scFv) QVQLQQSGAELVKSGGSVKLSCTASGFNIKDSYMHWVRQGPEQGLEWIGWIDPENGDTEYAPKFQGKATFTTDTSSNTAYLQLSSLTSEDTAVYYCNEGTPTGPYYFDYWGQGTTVTVSSGGGGSGGGGSGGGGSENVLTQSPAIVSASPGEKVTITCSASSSVSYMHWFQQKPGTSPKLVIYSTSNLADGVPARFSGSGSGTSYSLTISRMEAEDAATYYCQQRDSYPLTFGAGTKLELKRAATPVSEKQLAEVVANTITPLMKAQSVPGMAVAVIYQGKPHYYTFGKADIAANKPVTPQTLFELGSISKTFTGVLGGDAIARGEISLDDAVTRYWPQLTGKQWQGIRMLDLATYTAGGLPLQVPDEVTDNASLLRFYQNWQPQWKPGTTRLYANASIGLFGALAVKPSGMPYEQAMTTRVLKPLKLDHTWINVPKAEEAHYAWGYRDGKAVRVSPGMLDAQAYGVKTNVQDMANWVMANMAPENVADASLKQGIALAQSRYWRIGSMYQGLGWEMLNWPVEANTVVETSFGNVALAPLPVAEVNPPAPPVKASWVHKTGSTGGFGSYVAFIPEKQIGIVMLANTSYPNPARVEAAYHILEALQ | binds
